Measurements from the RNAGym collection of RNA variant scans (doi:10.1073/pnas.2313332121).

B1: TPR t1 (parent)
chain: GACCAAUCUGCCCUCAGAGCUCGAGAACAUCUUCGGAUGCAGAGGAGGCAGGCUUCGGUGGCGCGAUAGCGCCAACGUCCUCAACCUCCAAUGCAUCCCACCACAUGAUGAUGCCUGAAGAGCCUUGGUUUUUUG

Variants of: B1
Experiment: polymerase ribozyme fitness, log enrichment relative to wild type (log ratio); higher = more active; in vitro selection for triplet polymerase activity
Summary of the method: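 Mutant libraries of each subunit of a heterodimeric triplet polymerase ribozyme were built by PCR and transcribed. Each library went through one round of in vitro selection in triplicate: annealing with biotinylated primer, partner subunit and triplets, frozen incubation at −7 °C, gel excision of extended constructs, streptavidin-bead capture and RT-PCR. Input and output libraries were Illumina-sequenced; only genotypes with ≥10 input reads and ≥1 read per output were kept. Fitness is log2(genotype enrichment/wild-type enrichment), using inverse-variance-weighted replicate averages.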

Row | Variant | polymerase ribozyme fitness (log ratio)
1 | G60A U130A | -0.439
2 | G60A U130G | -0.663
3 | G61C C79A A95G G127A | -3.63
4 | G60U C62G A83C | -0.657
5 | G60U C76U | -2.74
6 | G60U A75U U87C | 0.354
7 | G60A C88G G113A | -2.28
8 | G57C G61A G120A | 0.501
9 | G58C C101G U112C U129G | -1.34
10 | G60C A111G | -0.122
11 | G60A C88U G120A G122U | 0.196
12 | G61C C79U G117A G128A | -4.76
13 | G60U A118U | -0.552
14 | G60U A118C | -2.43
15 | G61A C80A | -3.47
16 | G61C A66C G135U | -4.47
17 | U59C U78C A83U C115A | -1.1
18 | G57U C72G C115A U132C G135C | -4.51
19 | G60U C85A A103U A111C | -4.74
20 | U59C A108G | -2.19
21 | G60C U106G | -3.41

Row | Variant | polymerase ribozyme fitness (log ratio)
22 | G60C U106C | -0.702
23 | U59C C64U C82G C94U | -1.7
24 | G60U C101A | -0.256
25 | G58A U59C | -0.583
26 | G60U A68G | -3.02
27 | G61A G69C U116C | -4.59
28 | G60U C82G | -1.12
29 | G61C A83U G113C G120U U132A | -4.78
30 | G57U U132C | 0.0378
31 | U59C G93A | -1.47
32 | U59G U130G | -0.605
33 | G60U U130C | 0.326
34 | G58C G71C C115A A118U | -1.75
35 | U59C C102U C114G | -5.47
36 | G60U C101A C123G | 0.75
37 | G61A U106G C114U | -3.24
38 | G58C C70U A103U | -6.42
39 | U59C A91G U133G | -2.51
40 | G61A C70G | -4.02
41 | G57C U87A | -1.1
42 | G60C U112G U116C | -2.47

Row | Variant | polymerase ribozyme fitness (log ratio)
43 | G57U A74G | -0.836
44 | G61A G120A U133A | 0.274
45 | G58A C82G C88A G127U | -3.33
46 | G61A A75U U96G A121G U129C G135U | 0.938
47 | G61A A111C | -0.072
48 | G60U U112A | 1.6
49 | G60A U92G C115A G120C | -2.03
50 | G57U C72G U96A | -2.83
51 | G60U G69A | -4.86
52 | G60A G63A | -2.96
53 | G60U G120A C124A | 1.48
54 | G60A C115A | -0.714
55 | G60A C115G | -1.65
56 | G60U U87A | 0.377
57 | G57C C97U G110U C115U | -6.98
58 | U59A C82G A119U | -0.921
59 | G61A A111U G128C U133G | -4.57
60 | G60A G122A U132C | -0.379
61 | G61A G113A | -0.325
62 | G61C A84U | -1.95
63 | G60C C99U | -4.01

Row | Variant | polymerase ribozyme fitness (log ratio)
64 | G57U G93A G110C | -5.09
65 | G60A U116C | -0.935
66 | G60A C94A G128C | -3.09
67 | U59G A90U | -0.957
68 | G58C U133A | 0.072
69 | G58C G77A C97U | 0.13
70 | G58A G60A | -0.506
71 | G58C C80A | -3.5
72 | G60U A83C | 0.15
73 | G60U A83U | -0.0168
74 | G58C G63C G128A | -1.77
75 | G60C G77U | -0.19
76 | G61A C88U A105G | -2.9
77 | G58C G110C A121U | -4.05
78 | G61A C86U U116A G117A | -2.15
79 | G58C A84U A100C | -1.55
80 | G57U C85A | -2.14
81 | U59A G93U | -0.878
82 | G60U G61C | -1.45
83 | U59G C73A C88A | -2.15
